Assay results reported in paper PMC3410656 (Nature structural & molecular biology, 2011).

Molecular target: blocked SNARE[change] (SNARE[change] with CPXcen residues 48-134 pre-bound) ( | rat | human, UniProt P63027;P32851;P60880-2;O14810)
Assay: ITC

B1: wild-type complexin fragment wtCPX (hCPX1 residues 26-83) (domain or fragment)
chain: KDPDAAKKEEERQEALRQAEEERKAKYAKMEAEREAVRQGIRDKYGIKKKEEREAEAQ
Q: Which Kd does the source give for B1 here?
A: ~10 µM
